# From PMC4938175, “Conserved Sequence Preferences Contribute to Substrate Recognition by the Proteasome*^([image sbox.jpg])” (The Journal of Biological Chemistry, 2016)
# B1: DHFR-eRR (other)
# chain: MISLIAALAVDRVIGMENAMPWNLPADLAWFKRNTLNKPVIMGRHTWESIGRPLPGRKNIILSSQPGTDDRVTWVKSVDEAIAACGDVPEIMVIGGGRVYEQFLPKAQKLYLTHIDAEVEGDTHFPDYEPDDWESVFSEFHDADAQNSHSYCFEILERRPRGGGGAWLLPVSLVRRRTTLAPNTQTASPRALADS
# B2: DHFR-35 (other)
# chain: MISLIAALAVDRVIGMENAMPWNLPADLAWFKRNTLNKPVIMGRHTWESIGRPLPGRKNIILSSQPGTDDRVTWVKSVDEAIAACGDVPEIMVIGGGRVYEQFLPKAQKLYLTHIDAEVEGDTHFPDYEPDDWESVFSEFHDADAQNSHSYCFEILERRPRLRYQPLLRISQNCEAAILRASQTRLNTIHHHHHH
# B3: DHFR-GRR (other)
# chain: MISLIAALAVDRVIGMENAMPWNLPADLAWFKRNTLNKPVIMGRHTWESIGRPLPGRKNIILSSQPGTDDRVTWVKSVDEAIAACGDVPEIMVIGGGRVYEQFLPKAQKLYLTHIDAEVEGDTHFPDYEPDDWESVFSEFHDADAQNSHSYCFEILERRPRDSFGGGSGAGAGGGGMFGSGGGG
# Biological target: purified S. cerevisiae proteasome (S. cerevisiae)
# Assay: competitive inhibition of proteasomal degradation of a fluorescent substrate; apparent Ki; DHFR-tail competitor varied, UbL-GFP-95 substrate, 40 nM purified yeast proteasome; loss of GFP fluorescence in 384-well plates; 30 °C (methods; the legend of Figure 7 says room temperature); 50 mM Tris, 5 mM MgCl2, 2.5% glycerol, 1 mM ATP, 4 mM DTT, 0.2 mg/ml BSA, 10 mM creatine phosphate, 0.1 mg/ml creatine kinase, pH 7.5; …
# Conditions: both partners purified
row,Binder,Ki [µM]
1,B1,36 ± 5
2,B2,36 ± 6
3,B3,130 ± 20
